Ends that are not written are not given here.
Target: IgE of patient serum 3 (human)
Assay: ELISA: serum IgE captured on an anti-human IgE coated plate, epitope 2 peptide (FITC-tagged) titrated, fluorescence (RFU)

B1: FITC-tagged epitope 2 peptide of Ara h 2 (peptide)
peptide: ERDPYSPSQDPYSPS
modifications: also: FITC tag, site not given here
EC50 (read off the curve): 10 µM

— patent US20180272008A1
